Residue numbers refer to the chain shown, from its start. Names may count otherwise. Read-outs that look alike come from different tables or passages of the source. Each block holds one binder with its values, some of them ahead of it.
What was measured:
[1] = biological target: T1, human PD-L1 on CHO-K1 cells overexpressing human PD-L1 (human, UniProt Q9NZQ7 19-290); assay: flow cytometry on CHO-K1 cells overexpressing human PD-L1 (CHO-K1/hPD-L1)
T1 construct: whole, on cells; also called CHO-K1/hPD-L1; CHO-K1-hPD-L1
T1 sequence (Q9NZQ7 19-290): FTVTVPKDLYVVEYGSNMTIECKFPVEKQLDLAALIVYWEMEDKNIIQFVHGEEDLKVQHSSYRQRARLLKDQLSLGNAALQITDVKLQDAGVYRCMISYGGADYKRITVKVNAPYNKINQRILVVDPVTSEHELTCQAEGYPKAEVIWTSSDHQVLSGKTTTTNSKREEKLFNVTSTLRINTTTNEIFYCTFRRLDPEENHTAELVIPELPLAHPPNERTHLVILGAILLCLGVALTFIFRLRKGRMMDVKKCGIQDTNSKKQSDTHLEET
Method: (§1) In the example, in order to study the in vitro binding activity of the PD-L1 antigen-binding protein to human/cynomolgus monkey PD-L1, cell-level binding experiments were performed using CHO-K1 cell strains overexpressing human PD-L1 (CHO-K1/hPD-L1, GenScript, M00543) or CHO-K1 cell strains overexpressing cynomolgus monkey PD-L1 (CHO-K1/cynoPD-L1, GenScript, M00573). Briefly, the PD-L1 cells were digested and resuspended in an F-12K complete medium, and the cell density was adjusted to 1×10⁶ cells/mL. The cells were seeded in a 96-well V-bottom plate (Corning, 3894) at 100 μL/well, followed by the addition of the test antigen-binding proteins serially diluted 5-fold with concentrations that were twice the final concentrations at 100 μL/well. The mixtures were well mixed. The highest final concentration of the antigen-binding proteins was 100 nM. A total of 8 concentrations were set. An isotype antibody hIgG1 iso was used as a control. The cells were incubated away from light at 4° C. for 1 h. Thereafter, the cells in each well were rinsed twice with 100 μL of pre-cooled PBS, and centrifuged at 500 g at 4° C. for 5 min, and then the supernatant was discarded. Then 100 μL of a fluorescent secondary antibody (goat anti-human IgG (H+L) secondary antibody, Alexa Fluor 488 conjugate, Invitrogen, A11013, diluted at the ratio of 1:1000) was added to each well. The plate was incubated away from light at 4° C. for 30 min. The cells in each well were then rinsed twice with 200 μL of pre-cooled PBS and centrifuged at 500 g at 4° C. for 5 min, and then the supernatant was discarded. Finally, a pre-cooled PBS was added at 200 μL/well to resuspend the cells. Fluorescence signal values were read using a BD FACS CANTOII. Fluorescence signal values were read using a flow cytometer BD FACS CANTOII or FACS ACEA, and the data were processed and analyzed using FlowJo v10 (FlowJo, LLC) software. The data were processed and analyzed by plotting using GraphPad Prism 8 software, and binding curves, EC50 values and other parameters were acquired through four-parameter nonlinear fitting.

[2] = biological target: T1, human PD-L1 on CHO-K1 cells …; assay: as above; remark: listed apart in the source
Method: as §1

[3] = biological target: T2, cynomolgus monkey PD-L1 on CHO-K1 cells overexpressing cynomolgus monkey PD-L1 (cynomolgus monkey, UniProt G7PSE7 19-290); assay: flow cytometry on CHO-K1 cells overexpressing cynomolgus monkey PD-L1 (CHO-K1/cynoPD-L1)
T2 construct: also called CHO-K1/cynoPD-L1; GenScript M00573
T2 sequence (G7PSE7 entry or part of it limits assumed): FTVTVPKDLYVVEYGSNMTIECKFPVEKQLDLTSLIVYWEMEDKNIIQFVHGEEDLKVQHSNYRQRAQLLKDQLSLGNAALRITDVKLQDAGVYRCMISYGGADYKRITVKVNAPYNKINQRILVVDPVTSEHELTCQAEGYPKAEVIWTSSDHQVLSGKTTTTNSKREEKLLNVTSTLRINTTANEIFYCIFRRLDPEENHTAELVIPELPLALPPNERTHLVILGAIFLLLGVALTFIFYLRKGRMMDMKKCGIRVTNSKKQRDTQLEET
Method: as §1

[4] = biological target: T1, human PD-L1 on CHO-K1 cells …; assay: flow cytometry on CHO-K1 cells overexpressing human PD-L1 (CHO-K1/hPD-L1) [continued) E]
Method: as §1

[5] = biological target: T2, cynomolgus monkey PD-L1 on CHO-K1 cells …; assay: flow cytometry on CHO-K1 cells overexpressing cynomolgus monkey PD-L1 (CHO-K1/cynoPD-L1); remark: listed apart in the source
Method: as §1

[6] = biological target: T3, human PD-L1 protein with histidine tag (ACROBiosystems #PD-1-H5258) (human, UniProt Q9NZQ7 19-238); assay: BLI (Octet Red96e); His-tagged human PD-L1 captured on HIS1K sensor, antibody at 60 nM; 1:1 fit
T3 construct: Bought protein; also called His PD-L1; human PD-L1 proteins; not shown: histidine tag
T3 sequence (Q9NZQ7 19-238 limits assumed): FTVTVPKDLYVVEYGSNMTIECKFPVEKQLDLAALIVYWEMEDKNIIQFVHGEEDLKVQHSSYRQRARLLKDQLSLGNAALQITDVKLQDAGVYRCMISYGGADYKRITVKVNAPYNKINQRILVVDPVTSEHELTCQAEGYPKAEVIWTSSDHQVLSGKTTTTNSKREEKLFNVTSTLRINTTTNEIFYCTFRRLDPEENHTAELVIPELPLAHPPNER
Method: In this example, affinity determination was performed on the affinity-matured mutants of PR002082 using an Octet Red96e instrument. […] The binding kinetics between the antigen and the antibody was analyzed by the biolayer interferometry (BLI) technique using an Octet molecular interaction analyzer (ForteBio, model: Octet Red96e).
When the affinity of the antigen for the antibody was determined, the rotation speed of the sensor was set at 1000 rpm/min. The 2 HIS1K sensors placed in a column were first equilibrated for 10 min in test buffer, then His PD-L1 was captured with the HIS1K sensor at a capture height of 0.9-1.1 nm, then the HIS1K sensor was equilibrated for 2 min in the test buffer, then the HIS1K sensor was bound to the antigen-binding protein (60 nM and 0 nM) for 3 min, and finally the mixture was dissociated for 15 min. The HIS1K sensor was immersed in a 10 mM glycine solution (pH 1.5) for regeneration to elute the proteins bound to the sensor.
When data analysis was performed using Octet Data Analysis software (Fortebio, version 11.0), the reference signals were subtracted by a single reference mode (reference well), the data were fitted by a “1:1 Local/full fitting” method, and the kinetic parameters of the binding of the antigen to the antibody were calculated to obtain Kₒₙ (1/Ms) values, Kdis (1/s) values and KD (M) values.

[7] = biological target: T1, human PD-L1 on CHO-K1 cells …; assay: flow cytometry on CHO-K1 cells overexpressing human PD-L1 (CHO-K1/hPD-L1) [continued) F]
Method: as §1

[8] = biological target: T1, human PD-L1 on CHO-K1 cells …; assay: flow cytometry on CHO-K1 cells overexpressing human PD-L1 (CHO-K1/hPD-L1) [continued) D]
Method: as §1

EC50 [4]: 0.914 nM | Maximum MFI [4]: 363000 MFI | EC50 [5]: 1.19 nM | Maximum MFI [5]: 11700 MFI | Kd [6]: 1.94 nM | koff [6]: 0.000227 s⁻¹ | kon [6]: 117000 M⁻¹ s⁻¹
B2: PR005263 (antibody, human IgG1, V domains shown)
VH: QVQLVESGGGVVQPGMSLRLSCAASGFTFSSYGMYWVRQAPGKGQEWVASIRYTGTEKHYADSVKGRFTISRDNSKNTLYLEMNSLRVEDTAVYYCAKNRAIFGVVPDASDIRGQGTMVTVSS
notes: The HC entry is used

EC50 [2]: 3.33 nM | EC50 [3]: 0.4 nM | Maximum MFI [3]: 8480 MFI
B3: PR001058 (antibody, human IgG1, V domains shown)
VH: B2 VH with Q1E, M16R, S50I, R52W, T54D, E57K
notes: Heavy-chain-only antibody (HCAb): human VH fused to human IgG1 Fc; no light chain; also called anti-PD-L1 HCAb antibody

EC50 [2]: 2.67 nM | Maximum MFI [2]: 3000 MFI | EC50 [3]: 0.7 nM | Maximum MFI [3]: 8780 MFI
B7: PR001065 (antibody, human IgG1, V domains shown)
VH: B2 VH with Q1E, M16R, T28N, S50I, R52W, T54D, E57K
notes: as for B3

EC50 [8]: 0.787 nM | Maximum MFI [8]: 385000 MFI | EC50 [5]: 0.733 nM | Maximum MFI [5]: 11800 MFI | Kd [6]: 0.861 nM | koff [6]: 0.000187 s⁻¹ | kon [6]: 218000 M⁻¹ s⁻¹
B8: PR005872 (antibody, human IgG1, V domains shown)
VH: B2 VH with V106I, A109D
notes: The HC entry is used

EC50 [2]: 2.31 nM | Maximum MFI [2]: 3090 MFI | EC50 [3]: 0.4 nM | Maximum MFI [3]: 8840 MFI
B9: PR001061 (antibody, human IgG1, V domains shown)
VH: EVQLLESGGGVVQPGRSLRLSCAASGFNFSSYGMYWVRQAPGKGQEWVAIIWYDGSRKHYADSVKGRFTISRDNSKNTLYLEMNSLRAEDTAMYYCAKNRAIFGVVPDASDIRGQGTMVTVSS
notes: as for B3

Further lines, the binder ahead of its results:

B1: PR000960 (antibody, human IgG1, V domains shown)
VH: B2 VH with T28N, S31N, S50I, R52W, T54D, E57K
notes: as for B3
EC50 [1]: 0.79 nM | Maximum MFI [1]: 23700 MFI | EC50 [2]: 3 nM | Maximum MFI [2]: 3080 MFI | EC50 [3]: 0.421 nM | Maximum MFI [3]: 8440 MFI

B4: PR006246 (antibody, human IgG1, V domains shown)
VH: B2 VH with T28D, V106I, A109D
notes: The HC entry is used
EC50 [7]: 0.764 nM | Maximum MFI [7]: 396000 MFI | EC50 [5]: 0.736 nM | Maximum MFI [5]: 11600 MFI | Kd [6]: 0.546 nM | koff [6]: 0.000164 s⁻¹ | kon [6]: 301000 M⁻¹ s⁻¹

B5: PR005878 (antibody, human IgG1, V domains shown)
VH: B2 VH with I102L, V106I, A109D
notes: The HC entry is used
EC50 [8]: 0.944 nM | Maximum MFI [8]: 379000 MFI | EC50 [7]: 1.08 nM | Maximum MFI [7]: 419000 MFI | EC50 [5]: 0.894 nM | Maximum MFI [5]: 11700 MFI | Kd [6]: 0.671 nM | koff [6]: 0.000121 s⁻¹ | kon [6]: 180000 M⁻¹ s⁻¹

B6: PR005875 (antibody, human IgG1, V domains shown)
VH: B2 VH with I102L, V106I
notes: The HC entry is used
EC50 [8]: 0.974 nM | Maximum MFI [8]: 372000 MFI | EC50 [5]: 0.774 nM | Maximum MFI [5]: 11500 MFI | Kd [6]: 1.04 nM | koff [6]: 0.000179 s⁻¹ | kon [6]: 172000 M⁻¹ s⁻¹

B10: PR002079 (antibody, human IgG1, V domains shown)
VH: B2 VH with S31N, S50I, R52W, T54D, E57K
notes: HCAb; also called PTM variant of PR000960 (N28T)
EC50 [1]: 0.83 nM | Maximum MFI [1]: 24600 MFI | EC50 [3]: 0.376 nM

B11: PR006248 (antibody, human IgG1, V domains shown)
VH: B2 VH with T28D, I102L, V106I, A109D
notes: The HC entry is used
EC50 [7]: 0.606 nM | Maximum MFI [7]: 404000 MFI | EC50 [5]: 0.717 nM | Maximum MFI [5]: 11500 MFI | Kd [6]: 0.634 nM | koff [6]: 0.000115 s⁻¹ | kon [6]: 182000 M⁻¹ s⁻¹
